Reference: article PMC6853996, “Assaying Homodimers of NF-κB in Live Single Cells” (Frontiers in Immunology, 2019)
Several values for one entry are separate records, joined by “and”; a condition that tells them apart may be missing. Equal values may be shown once.

Tests used:
[1] = target: the molecule itself; assay: Number and Brightness (N&B) live-cell confocal fluorescence fluctuation microscopy; nuclei of live NIH3T3 fibroblasts transiently or stably expressing the mEGFP fusion, 37°C; brightness ε relative to the mEGFP-mutGR monomer control; stimuli 10 ng/mL TNFα, 100 ng/mL LPS, 100 nM Dex, dihydrotestosterone or progesterone; pre-treatments WFA (0.5 or 1 μM, 1 h) or TSA (2 h) before LPS; untagged endogenous protein present
[2] = target: T1, mEGFP-RelA (fluorescent fusion protein expressed from the pSF-EF1α-Ub-Neo plasmid), Q04207; assay: Number and Brightness (N&B) live-cell confocal fluorescence fluctuation microscopy; nuclei of live primary mouse adult fibroblasts (WT or p50/c-Rel double-KO) transiently expressing mEGFP-RelA, 100 ng/mL LPS; brightness ε relative to the monomer control; untagged endogenous RelA present; settings: remark: other sources report otherwise
T1 chain: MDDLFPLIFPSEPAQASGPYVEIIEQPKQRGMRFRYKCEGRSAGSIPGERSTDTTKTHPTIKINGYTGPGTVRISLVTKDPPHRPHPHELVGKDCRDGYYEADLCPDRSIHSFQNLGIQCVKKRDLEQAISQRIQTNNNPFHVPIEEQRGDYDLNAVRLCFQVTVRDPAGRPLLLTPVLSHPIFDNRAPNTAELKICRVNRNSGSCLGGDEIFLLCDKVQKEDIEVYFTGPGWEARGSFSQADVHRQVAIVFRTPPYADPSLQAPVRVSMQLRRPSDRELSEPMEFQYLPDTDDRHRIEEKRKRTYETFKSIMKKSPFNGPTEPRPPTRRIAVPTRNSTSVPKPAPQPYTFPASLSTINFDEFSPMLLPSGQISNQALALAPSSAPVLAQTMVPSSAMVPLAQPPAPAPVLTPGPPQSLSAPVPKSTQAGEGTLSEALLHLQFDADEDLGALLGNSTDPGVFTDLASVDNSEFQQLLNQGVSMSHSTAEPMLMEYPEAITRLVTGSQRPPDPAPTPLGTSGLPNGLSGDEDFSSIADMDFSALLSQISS

[3] = target: T1, mEGFP-RelA (fluorescent fusion protein …); assay: Number and Brightness (N&B) live-cell confocal fluorescence fluctuation microscopy; nuclei of live NIH3T3 fibroblasts transiently or stably expressing the mEGFP fusion, 37°C; brightness ε relative to the mEGFP-mutGR monomer control; stimuli 10 ng/mL TNFα, 100 ng/mL LPS, 100 nM Dex, dihydrotestosterone or progesterone; pre-treatments WFA (0.5 or 1 μM, 1 h) or TSA (2 h) before LPS; untagged endogenous protein present; settings: remark: other sources report otherwise
[4] = target: T2, mEGFP-RelA from the knock-in (KI) mouse (mEGFP inserted at the endogenous RelA locus) (mouse), Q04207; assay: Number and Brightness (N&B) live-cell confocal fluorescence fluctuation microscopy; nuclei of live primary MAFs from the mEGFP-RelA knock-in mouse, treated with TNFα or LPS; all RelA tagged; settings: remark: other sources report otherwise
T2 chain: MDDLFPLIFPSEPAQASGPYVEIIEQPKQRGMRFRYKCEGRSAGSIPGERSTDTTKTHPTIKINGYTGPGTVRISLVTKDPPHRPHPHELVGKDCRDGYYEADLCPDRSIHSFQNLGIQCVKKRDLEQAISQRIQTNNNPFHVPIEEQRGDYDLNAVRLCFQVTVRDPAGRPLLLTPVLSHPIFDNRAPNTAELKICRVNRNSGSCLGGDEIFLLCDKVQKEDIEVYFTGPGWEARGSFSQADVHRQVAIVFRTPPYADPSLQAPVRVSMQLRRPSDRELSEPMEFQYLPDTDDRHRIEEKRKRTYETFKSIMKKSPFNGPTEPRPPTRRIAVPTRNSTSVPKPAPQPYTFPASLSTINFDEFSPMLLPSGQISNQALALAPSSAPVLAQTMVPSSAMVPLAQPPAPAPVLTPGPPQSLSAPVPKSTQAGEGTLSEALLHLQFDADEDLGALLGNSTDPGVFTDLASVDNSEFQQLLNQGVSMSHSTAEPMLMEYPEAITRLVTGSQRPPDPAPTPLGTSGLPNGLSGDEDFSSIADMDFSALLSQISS

[5] = target: T3, mEGFP-GR (mEGFP-tagged wild-type glucocorticoid receptor), P06537; assay: Number and Brightness (N&B) live-cell confocal fluorescence fluctuation microscopy; nuclei of live NIH3T3 fibroblasts transiently or stably expressing the mEGFP fusion, 37°C; brightness ε relative to the mEGFP-mutGR monomer control; stimuli 10 ng/mL TNFα, 100 ng/mL LPS, 100 nM Dex, dihydrotestosterone or progesterone; pre-treatments WFA (0.5 or 1 μM, 1 h) or TSA (2 h) before LPS; untagged endogenous protein present; settings: remark: other sources report otherwise
T3 chain: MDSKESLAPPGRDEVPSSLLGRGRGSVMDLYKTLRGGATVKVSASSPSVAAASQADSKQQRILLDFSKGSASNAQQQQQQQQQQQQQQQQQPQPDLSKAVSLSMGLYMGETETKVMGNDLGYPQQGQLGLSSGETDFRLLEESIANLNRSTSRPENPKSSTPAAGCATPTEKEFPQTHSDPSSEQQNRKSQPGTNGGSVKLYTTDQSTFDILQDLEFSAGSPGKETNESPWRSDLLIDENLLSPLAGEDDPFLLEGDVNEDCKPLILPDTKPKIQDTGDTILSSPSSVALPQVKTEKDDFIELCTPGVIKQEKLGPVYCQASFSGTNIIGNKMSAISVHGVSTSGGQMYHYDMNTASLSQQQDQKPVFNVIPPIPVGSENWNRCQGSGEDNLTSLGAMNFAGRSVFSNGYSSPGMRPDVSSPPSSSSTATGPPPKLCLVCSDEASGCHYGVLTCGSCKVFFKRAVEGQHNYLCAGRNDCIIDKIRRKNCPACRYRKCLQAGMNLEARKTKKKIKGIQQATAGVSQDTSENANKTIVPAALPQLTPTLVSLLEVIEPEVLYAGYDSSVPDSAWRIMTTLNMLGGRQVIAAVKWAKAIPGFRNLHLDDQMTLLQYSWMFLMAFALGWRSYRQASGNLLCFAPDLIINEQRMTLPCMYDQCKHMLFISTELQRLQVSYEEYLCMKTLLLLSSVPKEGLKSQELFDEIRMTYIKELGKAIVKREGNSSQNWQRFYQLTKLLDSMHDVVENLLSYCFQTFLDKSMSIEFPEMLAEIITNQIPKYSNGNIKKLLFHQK

B1: mEGFP-PR (mEGFP-tagged progesterone receptor) (natural protein, UniProt P06401 1-933, looked up)
chain: MTELKAKGPRAPHVAGGPPSPEVGSPLLCRPAAGPFPGSQTSDTLPEVSAIPISLDGLLFPRPCQGQDPSDEKTQDQQSLSDVEGAYSRAEATRGAGGSSSSPPEKDSGLLDSVLDTLLAPSGPGQSQPSPPACEVTSSWCLFGPELPEDPPAAPATQRVLSPLMSRSGCKVGDSSGTAAAHKVLPRGLSPARQLLLPASESPHWSGAPVKPSPQAAAVEVEEEDGSESEESAGPLLKGKPRALGGAAAGGGAAAVPPGAAAGGVALVPKEDSRFSAPRVALVEQDAPMAPGRSPLATTVMDFIHVPILPLNHALLAARTRQLLEDESYDGGAGAASAFAPPRSSPCASSTPVAVGDFPDCAYPPDAEPKDDAYPLYSDFQPPALKIKEEEEGAEASARSPRSYLVAGANPAAFPDFPLGPPPPLPPRATPSRPGEAAVTAAPASASVSSASSSGSTLECILYKAEGAPPQQGPFAPPPCKAPGASGCLLPRDGLPSTSASAAAAGAAPALYPALGLNGLPQLGYQAAVLKEGLPQVYPPYLNYLRPDSEASQSPQYSFESLPQKICLICGDEASGCHYGVLTCGSCKVFFKRAMEGQHNYLCAGRNDCIVDKIRRKNCPACRLRKCCQAGMVLGGRKFKKFNKVRVVRALDAVALPQPVGVPNESQALSQRFTFSPGQDIQLIPPLINLLMSIEPDVIYAGHDNTKPDTSSSLLTSLNQLGERQLLSVVKWSKSLPGFRNLHIDDQITLIQYSWMSLMVFGLGWRSYKHVSGQMLYFAPDLILNEQRMKESSFYSLCLTMWQIPQEFVKLQVSQEEFLCMKVLLLLNTIPLEGLRSQTQFEEMRSSYIRELIKAIGLRQKGVVSSSQRFYQLTKLLDNLHDLVKQLHLYCLNTFIQSRALSVEFPEMMSEVIAAQLPKILAGMVKPLLFHKK
notes: progesterone receptor; Assayed in cells treated with progesterone; source: fibroblasts (immortalized), transiently transfected, in live cells
B1 was tested, and the “nuclear brightness (ε) relative to monomer control; transiently transfected fibroblasts, progesterone” value [1] was 2.07.

B2: mEGFP-RelA (fluorescent fusion protein expressed from the pSF-EF1α-Ub-Neo plasmid), Q04207 1-549 (natural protein)
chain: MDDLFPLIFPSEPAQASGPYVEIIEQPKQRGMRFRYKCEGRSAGSIPGERSTDTTKTHPTIKINGYTGPGTVRISLVTKDPPHRPHPHELVGKDCRDGYYEADLCPDRSIHSFQNLGIQCVKKRDLEQAISQRIQTNNNPFHVPIEEQRGDYDLNAVRLCFQVTVRDPAGRPLLLTPVLSHPIFDNRAPNTAELKICRVNRNSGSCLGGDEIFLLCDKVQKEDIEVYFTGPGWEARGSFSQADVHRQVAIVFRTPPYADPSLQAPVRVSMQLRRPSDRELSEPMEFQYLPDTDDRHRIEEKRKRTYETFKSIMKKSPFNGPTEPRPPTRRIAVPTRNSTSVPKPAPQPYTFPASLSTINFDEFSPMLLPSGQISNQALALAPSSAPVLAQTMVPSSAMVPLAQPPAPAPVLTPGPPQSLSAPVPKSTQAGEGTLSEALLHLQFDADEDLGALLGNSTDPGVFTDLASVDNSEFQQLLNQGVSMSHSTAEPMLMEYPEAITRLVTGSQRPPDPAPTPLGTSGLPNGLSGDEDFSSIADMDFSALLSQISS
In the case of B2, the nuclear brightness (ε) relative to monomer control; WT primary MAFs, LPS [2] is reported as 1.29, the nuclear brightness (ε) relative to monomer control; p50/c-Rel double-KO primary MAFs, LPS [2] is reported as 1.31 and the percent of RelA-containing dimers in the nucleus that are homodimers (estimated from ε); WT primary MAFs, LPS [2] is reported as 20%. It also gave a median nuclear brightness (ε) relative to monomer control; stably transfected 3T3, LPS [3] of 1.75, a median nuclear brightness (ε) relative to monomer control; stably transfected 3T3, TNFα [3] of 1.61 and a median nuclear brightness (ε) relative to monomer control; transiently transfected 3T3, TNFα [3] of 1.52. For the same binder, the nuclear brightness (ε); stably transfected 3T3, 0.5 μM WFA before LPS [3] was 1.57, the nuclear brightness (ε); stably transfected 3T3, 1 μM WFA before LPS [3] was 1.61 and the nuclear brightness (ε); stably transfected 3T3, TSA before LPS (concentration not given) [3] was 1.42 and 1.58. The percent dimers (estimated from ε); stably transfected 3T3, LPS [3] was 60%, the percent dimers (estimated from ε); stably transfected 3T3, TNFα [3] was 43% and the percent of RelA dimer species that are RelA homodimers (estimated from ε); transiently transfected 3T3, TNFα [3] was 35%.

B3: mEGFP-RelA from the knock-in (KI) mouse (mEGFP inserted at the endogenous RelA locus), Q04207 1-549 (natural protein)
chain: MDDLFPLIFPSEPAQASGPYVEIIEQPKQRGMRFRYKCEGRSAGSIPGERSTDTTKTHPTIKINGYTGPGTVRISLVTKDPPHRPHPHELVGKDCRDGYYEADLCPDRSIHSFQNLGIQCVKKRDLEQAISQRIQTNNNPFHVPIEEQRGDYDLNAVRLCFQVTVRDPAGRPLLLTPVLSHPIFDNRAPNTAELKICRVNRNSGSCLGGDEIFLLCDKVQKEDIEVYFTGPGWEARGSFSQADVHRQVAIVFRTPPYADPSLQAPVRVSMQLRRPSDRELSEPMEFQYLPDTDDRHRIEEKRKRTYETFKSIMKKSPFNGPTEPRPPTRRIAVPTRNSTSVPKPAPQPYTFPASLSTINFDEFSPMLLPSGQISNQALALAPSSAPVLAQTMVPSSAMVPLAQPPAPAPVLTPGPPQSLSAPVPKSTQAGEGTLSEALLHLQFDADEDLGALLGNSTDPGVFTDLASVDNSEFQQLLNQGVSMSHSTAEPMLMEYPEAITRLVTGSQRPPDPAPTPLGTSGLPNGLSGDEDFSSIADMDFSALLSQISS
For B3, the percent of RelA dimer species that are RelA homodimers; knock-in MAFs, TNFα or LPS [4] was < 35%.

B4: mEGFP-GR (mEGFP-tagged wild-type glucocorticoid receptor), P06537 1-792 (natural protein)
chain: MDSKESLAPPGRDEVPSSLLGRGRGSVMDLYKTLRGGATVKVSASSPSVAAASQADSKQQRILLDFSKGSASNAQQQQQQQQQQQQQQQQQPQPDLSKAVSLSMGLYMGETETKVMGNDLGYPQQGQLGLSSGETDFRLLEESIANLNRSTSRPENPKSSTPAAGCATPTEKEFPQTHSDPSSEQQNRKSQPGTNGGSVKLYTTDQSTFDILQDLEFSAGSPGKETNESPWRSDLLIDENLLSPLAGEDDPFLLEGDVNEDCKPLILPDTKPKIQDTGDTILSSPSSVALPQVKTEKDDFIELCTPGVIKQEKLGPVYCQASFSGTNIIGNKMSAISVHGVSTSGGQMYHYDMNTASLSQQQDQKPVFNVIPPIPVGSENWNRCQGSGEDNLTSLGAMNFAGRSVFSNGYSSPGMRPDVSSPPSSSSTATGPPPKLCLVCSDEASGCHYGVLTCGSCKVFFKRAVEGQHNYLCAGRNDCIIDKIRRKNCPACRYRKCLQAGMNLEARKTKKKIKGIQQATAGVSQDTSENANKTIVPAALPQLTPTLVSLLEVIEPEVLYAGYDSSVPDSAWRIMTTLNMLGGRQVIAAVKWAKAIPGFRNLHLDDQMTLLQYSWMFLMAFALGWRSYRQASGNLLCFAPDLIINEQRMTLPCMYDQCKHMLFISTELQRLQVSYEEYLCMKTLLLLSSVPKEGLKSQELFDEIRMTYIKELGKAIVKREGNSSQNWQRFYQLTKLLDSMHDVVENLLSYCFQTFLDKSMSIEFPEMLAEIITNQIPKYSNGNIKKLLFHQK
For B4, the nuclear brightness (ε) relative to monomer control; transiently transfected 3T3, Dex [5] was 1.52.
